This note sets out measurements from patent US20240400654A1.

Changes are numbered by the printed parent chain. In names and notes the source's numbering stands. Several values for one entry are separate records, joined by “and”; a condition that tells them apart may be missing. Identical values can stand only once.

Assay [1] addresses HRgpA-6H (Porphyromonas gingivalis) (UniProt P28784). Put plainly: ELISA, FASEBA Fab supernatant on coated HRgpA-6H. Background: ELISA stands for enzyme-linked immunosorbent assay.
For assay [2] the target is unchanged. The assay is described as follows: ELISA on coated HRgpA-6H, OD relative to parental Fab.
The target is the same in assay [3]. Put plainly: ELISA, coated HRgpA-6H.

UniProt P28784, sequence (P28784 228-860 limits assumed): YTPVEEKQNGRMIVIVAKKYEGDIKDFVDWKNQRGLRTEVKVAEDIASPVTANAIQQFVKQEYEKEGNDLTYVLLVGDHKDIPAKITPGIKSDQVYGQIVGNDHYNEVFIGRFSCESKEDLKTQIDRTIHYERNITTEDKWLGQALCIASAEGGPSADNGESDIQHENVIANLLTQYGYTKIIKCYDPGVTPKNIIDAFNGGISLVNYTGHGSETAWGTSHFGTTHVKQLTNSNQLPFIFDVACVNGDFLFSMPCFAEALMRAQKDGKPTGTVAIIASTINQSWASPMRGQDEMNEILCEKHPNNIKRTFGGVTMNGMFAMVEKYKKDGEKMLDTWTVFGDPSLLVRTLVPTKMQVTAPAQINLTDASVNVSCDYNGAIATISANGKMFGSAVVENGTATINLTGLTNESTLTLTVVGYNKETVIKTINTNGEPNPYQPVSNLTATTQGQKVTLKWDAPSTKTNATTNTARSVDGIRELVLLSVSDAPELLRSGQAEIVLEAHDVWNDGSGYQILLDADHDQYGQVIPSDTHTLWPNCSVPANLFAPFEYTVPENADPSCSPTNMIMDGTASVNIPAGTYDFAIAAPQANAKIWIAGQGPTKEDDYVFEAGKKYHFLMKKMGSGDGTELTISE

B1: KB001 mouse Fab variant VL L55R/S51G (Fab, V domains shown)
VH: EVQLKQSGPGLVAPSQSLSITCTVSGFSLSIYSVHWVRQPPGKGLEWLGMIWGGGSSDYNSALKSRLSISKDNSKSQVFLKMNSLQTDDTAMYYCARNGNFYAMDYWGQGTSVTVSS
VL: QIVLTQSPAIMSASLGERVTMTCTASSSVSSSFLHWYQQKPGSSPQLWIYGTSNRASGVPARFSGSGSGTSYSLTISSMEAEDAATYYCHQYHHSPYIYTFGGGTKLEIK
The molecule B1 returned an OD450 nm in assay [1] of 0.748. Also, the Ratio OD(Variant)/OD(WT) in assay [2] was found to be 0.955 fold.

B2: KB001 mouse Fab VH A62Q (Fab, V domains shown)
VH: B1 VH with A62Q
VL: B1 VL with G51S, R55L
As for B2, in assay [3], the OD450 nm was 0.737 and 0.869; the Ratio OD(Variant)/OD(WT) is 0.843 and 0.994.

B3: KB001 mouse Fab VH L63Y (Fab, V domains shown)
VH: B1 VH with L63Y
VL: B1 VL with G51S, R55L
Regarding B3, in assay [3], the OD450 nm was 0.836 and 0.846 and 0.801; the Ratio OD(Variant)/OD(WT) was 0.957 and 0.968 and 0.916.

B4: KB001 mouse Fab VH A62R (Fab, V domains shown)
VH: B1 VH with A62R
VL: B1 VL with G51S, R55L
In the case of B4, in assay [3], the OD450 nm is 0.733 and 0.847 and 0.809; the Ratio OD(Variant)/OD(WT) is 0.839 and 0.969 and 0.926.

B5: KB001 mouse Fab VH A62M (Fab, V domains shown)
VH: B1 VH with A62M
VL: B1 VL with G51S, R55L
On to B5, for which, in assay [3], the OD450 nm was 0.77 and 0.735; the Ratio OD(Variant)/OD(WT) was 0.881 and 0.841.

B6: KB001 mouse Fab variant VL L55Q (Fab, V domains shown)
VH: B1 VH
VL: B1 VL with G51S, R55Q
The molecule B6 registered an OD450 nm in assay [1] of 0.662. Also, the Ratio OD(Variant)/OD(WT) in assay [2] stood at 0.845 fold.

B7: KB001 mouse Fab VH K64V (Fab, V domains shown)
VH: B1 VH with K64V
VL: B1 VL with G51S, R55L
On to B7, for which, in assay [3], the OD450 nm is 0.715 and 0.714; the Ratio OD(Variant)/OD(WT) is 0.865 and 0.863.

B8: KB001 mouse Fab variant VL A56T (Fab, V domains shown)
VH: B1 VH
VL: B1 VL with G51S, R55L, A56T
Molecule B8 returned an OD450 nm in assay [1] of 0.731. In addition, the Ratio OD(Variant)/OD(WT) in assay [2] stood at 0.896 fold.

B9: KB001 mouse Fab VH K64H (Fab, V domains shown)
VH: B1 VH with K64H
VL: B1 VL with G51S, R55L
Turning to B9, in assay [3], the OD450 nm was 0.752 and the Ratio OD(Variant)/OD(WT) amounted to 0.909.

B10: KB001 mouse Fab variant VL L55H (Fab, V domains shown)
VH: B1 VH
VL: B1 VL with G51S, R55H
In assay [1], B10 returned an OD450 nm of 0.64. The Ratio OD(Variant)/OD(WT) in assay [2] was 0.817 fold.

B11: KB001 mouse Fab VH L63F (Fab, V domains shown)
VH: B1 VH with L63F
VL: B1 VL with G51S, R55L
On to B11, for which, in assay [3], the OD450 nm stood at 0.743 and the Ratio OD(Variant)/OD(WT) is 0.85.

B12: KB001 mouse Fab variant VL L55S (Fab, V domains shown)
VH: B1 VH
VL: B1 VL with G51S, R55S
As to B12, the OD450 nm in assay [1] came to 0.655. Further, in assay [2], the Ratio OD(Variant)/OD(WT) was 0.836 fold.

B13: KB001 mouse Fab VH K64Y (Fab, V domains shown)
VH: B1 VH with K64Y
VL: B1 VL with G51S, R55L
As for B13, in assay [3], the OD450 nm was 0.763 and the Ratio OD(Variant)/OD(WT) amounted to 0.923.

B14: KB001 mouse Fab VH A62F (Fab, V domains shown)
VH: B1 VH with A62F
VL: B1 VL with G51S, R55L
Take B14: in assay [3], the OD450 nm is 0.843 and 0.733; the Ratio OD(Variant)/OD(WT) is 0.965 and 0.839.

B15: KB001 mouse Fab VH K64S (Fab, V domains shown)
VH: B1 VH with K64S
VL: B1 VL with G51S, R55L
For B15, in assay [3], the OD450 nm came out at 0.808 and the Ratio OD(Variant)/OD(WT) was found to be 0.977.

B16: KB001 mouse Fab VH A62L (Fab, V domains shown)
VH: B1 VH with A62L
VL: B1 VL with G51S, R55L
Regarding B16, in assay [3], the OD450 nm turned out to be 0.812 and the Ratio OD(Variant)/OD(WT) came to 0.929.

B17: KB001 mouse Fab VH A62V (Fab, V domains shown)
VH: B1 VH with A62V
VL: B1 VL with G51S, R55L
B17: in assay [3], the OD450 nm is 0.742 and 0.757; the Ratio OD(Variant)/OD(WT) is 0.849 and 0.866.

B18: KB001 mouse Fab VH A62H (Fab, V domains shown)
VH: B1 VH with A62H
VL: B1 VL with G51S, R55L
Turning to B18, in assay [3], the OD450 nm was 0.819 and 0.834 and 0.844; the Ratio OD(Variant)/OD(WT) is 0.937 and 0.954 and 0.966.

B19: KB001 mouse Fab variant VL A56R (Fab, V domains shown)
VH: B1 VH
VL: B1 VL with G51S, R55L, A56R
Regarding B19, in assay [1], the OD450 nm was 0.728 and 0.734 and 0.751. Besides, the Ratio OD(Variant)/OD(WT) in assay [2] is 0.893 fold and 0.9 fold and 0.921 fold.

B20: KB001 mouse Fab VH K64M (Fab, V domains shown)
VH: B1 VH with K64M
VL: B1 VL with G51S, R55L
With B20, in assay [3], the OD450 nm was 0.799 and 0.757 and 0.78; the Ratio OD(Variant)/OD(WT) is 0.966 and 0.915 and 0.943.

B21: KB001 mouse Fab VH A62E (Fab, V domains shown)
VH: B1 VH with A62E
VL: B1 VL with G51S, R55L
As to B21, in assay [3], the OD450 nm stood at 0.854 and the Ratio OD(Variant)/OD(WT) worked out at 0.977.

B22: KB001 mouse Fab VH S61H (Fab, V domains shown)
VH: B1 VH with S61H
VL: B1 VL with G51S, R55L
In the case of B22, in assay [3], the OD450 nm was found to be 0.469 and the Ratio OD(Variant)/OD(WT) turned out to be 0.95.

B23: KB001 mouse Fab VH S61L (Fab, V domains shown)
VH: B1 VH with S61L
VL: B1 VL with G51S, R55L
Consider B23, for which, in assay [3], the OD450 nm worked out at 0.448 and the Ratio OD(Variant)/OD(WT) was 0.908.

B24: KB001 mouse Fab VH A62G (Fab, V domains shown)
VH: B1 VH with A62G
VL: B1 VL with G51S, R55L
Regarding B24, in assay [3], the OD450 nm was 0.813 and 0.785; the Ratio OD(Variant)/OD(WT) is 0.93 and 0.898.

B25: KB001 mouse Fab VH A62I (Fab, V domains shown)
VH: B1 VH with A62I
VL: B1 VL with G51S, R55L
For B25, in assay [3], the OD450 nm is 0.702 and 0.808; the Ratio OD(Variant)/OD(WT) was 0.803 and 0.924.

B26: KB001 mouse Fab variant VL A56Q (Fab, V domains shown)
VH: B1 VH
VL: B1 VL with G51S, R55L, A56Q
Take B26: the OD450 nm in assay [1] worked out at 0.705. Moreover, in assay [2], the Ratio OD(Variant)/OD(WT) came to 0.865 fold.

B27: KB001 mouse Fab VH L63H (Fab, V domains shown)
VH: B1 VH with L63H
VL: B1 VL with G51S, R55L
Regarding B27, in assay [3], the OD450 nm was 0.818 and 0.843 and 0.822; the Ratio OD(Variant)/OD(WT) is 0.936 and 0.965 and 0.941.

B28: KB001 mouse Fab VH A62D (Fab, V domains shown)
VH: B1 VH with A62D
VL: B1 VL with G51S, R55L
With B28, in assay [3], the OD450 nm is 0.853 and 0.851; the Ratio OD(Variant)/OD(WT) is 0.976 and 0.974.

B29: KB001 mouse Fab VH S61K (Fab, V domains shown)
VH: B1 VH with S61K
VL: B1 VL with G51S, R55L
On to B29, for which, in assay [3], the OD450 nm amounted to 0.49 and the Ratio OD(Variant)/OD(WT) worked out at 0.993.

B30: KB001 mouse Fab VH L63V (Fab, V domains shown)
VH: B1 VH with L63V
VL: B1 VL with G51S, R55L
As to B30, in assay [3], the OD450 nm is 0.784 and 0.77 and 0.778; the Ratio OD(Variant)/OD(WT) is 0.897 and 0.881 and 0.89.

B31: KB001 mouse Fab VH K64I (Fab, V domains shown)
VH: B1 VH with K64I
VL: B1 VL with G51S, R55L
For the molecule B31, in assay [3], the OD450 nm was 0.743 and 0.756 and 0.715; the Ratio OD(Variant)/OD(WT) is 0.898 and 0.914 and 0.865.

B32: KB001 mouse Fab VH A62N (Fab, V domains shown)
VH: B1 VH with A62N
VL: B1 VL with G51S, R55L
For B32, in assay [3], the OD450 nm was 0.721 and 0.799; the Ratio OD(Variant)/OD(WT) is 0.825 and 0.914.

B33: KB001 mouse Fab VL T100K (Fab, V domains shown)
VH: B1 VH
VL: B1 VL with G51S, R55L, T100K
As to B33, in assay [3], the OD450 nm is 0.625 and the Ratio OD(Variant)/OD(WT) came out at 1.19.

B34: KB001 mouse Fab VH L63M (Fab, V domains shown)
VH: B1 VH with L63M
VL: B1 VL with G51S, R55L
On to B34, for which, in assay [3], the OD450 nm turned out to be 0.8 and the Ratio OD(Variant)/OD(WT) was determined as 0.915.

B35: KB001 mouse Fab VL T100D (Fab, V domains shown)
VH: B1 VH
VL: B1 VL with G51S, R55L, T100D
In the case of B35, in assay [3], the OD450 nm came out at 0.645 and the Ratio OD(Variant)/OD(WT) was found to be 1.23.

B36: KB001 mouse Fab VH K64G (Fab, V domains shown)
VH: B1 VH with K64G
VL: B1 VL with G51S, R55L
For the molecule B36, in assay [3], the OD450 nm stood at 0.806 and the Ratio OD(Variant)/OD(WT) was 0.975.

B37: KB001 mouse Fab variant VL A56N (Fab, V domains shown)
VH: B1 VH
VL: B1 VL with G51S, R55L, A56N
On to B37, for which, in assay [1], the OD450 nm was 0.712 and 0.775. Further, the Ratio OD(Variant)/OD(WT) in assay [2] is 0.873 fold and 0.95 fold.
